Laboratory results as given in the RNAGym collection of RNA variant scans (doi:10.1021/acssynbio.7b00057).

B1: Pistol ribozyme (parent)
chain: GGGUCGUUGUUCCAUAAUCGCGUGGAUAUGGCACGCAAGUUUCUACCGGGCACCGUAAAUGUCCGACUGGAGCCGUUCGGGCGGCUAUAAACAGACCUCAGGCCCGAAGCGUGGCGGCACCUGCCGCCGGUGGUAAAAAAGAUCGGAAGAGCACACGUCU

Variants of: B1
Test: aptazyme ON/OFF ratio, guanine; higher = stronger switching; co-transcriptional cleavage with and without guanine

| Variant | aptazyme ON/OFF ratio |
| --- | --- |
| U8C C13A | 1.36 |
| U8C C13G | 1.11 |
| U8C C13U | 1.55 |
| U8A U11G C12U | 1.28 |
| U8A U11G C12A | 1.09 |
| U8A U11G C12G | 1.18 |
| U8A U10G C12G C13G | 1.12 |
| U8A U10G C12G C13U | 1.34 |
| U8A U10G C12G C13A | 1.37 |
| U8A U10G U11G C12G C13U | 1.32 |
| U8A U10G U11G C12G C13G | 1.06 |
| U8A U10G U11G C12G C13A | 1.45 |
| U8C G9A U10C C13U | 1.66 |
| U8C G9A U10C C13A | 1.06 |
| U8C G9A U10C C13G | 1.1 |
| U8C G9A U10C U11A | 3.76 |
| U8C G9A U10C U11C | 1.25 |
| U8C G9A U10C U11G | 1.19 |
| U8C G9A U10C U11G C12A C13U | 1.4 |
| U8C G9A U10C U11G C12A C13G | 1.27 |
| U8C G9A U10C U11G C12A C13A | 1.44 |

| Variant | aptazyme ON/OFF ratio |
| --- | --- |
| U8A U10G C12U | 1.58 |
| U8A U10G C12A | 1.31 |
| U8A U10G C12G | 1.29 |
| U8A U11G C12A C13U | 1.2 |
| U8A U11G C12A C13A | 1.15 |
| U8A U11G C12A C13G | 1.17 |
| U8C G9A C12A C13A | 1.33 |
| U8C G9A C12A C13G | 1.14 |
| U8C G9A C12A C13U | 1.17 |
| U8C G9A U10C U11A C12G | 1.37 |
| U8C G9A U10C U11A C12U | 1.55 |
| U8C G9A U10C U11A C12A | 1.44 |
| U8C G9A U10C U11A C12U C13U | 1.28 |
| U8C G9A U10C U11A C12U C13G | 1.33 |
| U8C G9A U10C U11A C12U C13A | 1.37 |
| U8C G9A U10C U11C C13U | 1.01 |
| U8C G9A U10C U11C C13A | 1.01 |
| U8C G9A U10C U11C C13G | 1.02 |
| U8A U10G U11G | 1.16 |
| U8A U10G U11C | 1.02 |
| U8A U10G U11A | 1.09 |

| Variant | aptazyme ON/OFF ratio |
| --- | --- |
| U8C G9A U10A U11C C12U C13U | 1.14 |
| U8C G9A U10A U11C C12U C13G | 1.14 |
| U8C G9A U10A U11C C12U C13A | 1.13 |
| U8C G9A U10C U11A C12A C13A | 1.23 |
| U8C G9A U10C U11A C12A C13U | 1.19 |
| U8C G9A U10C U11A C12A C13G | 1.27 |
| U8A U10G U11G C12A C13G | 1.15 |
| U8A U10G U11G C12A C13U | 1.44 |
| U8A U10G U11G C12A C13A | 1.18 |
| U8A U10C U11C C12U C13G | 1.06 |
| U8A U10C U11C C12U C13A | 1.05 |
| U8A U10C U11C C12U C13U | 1.04 |
| U8C G9A U10A C12U | 1.31 |
| U8C G9A U10A C12A | 1.22 |
| U8C G9A U10A C12G | 1.29 |
| U8C G9A U10A U11A C13U | 1.28 |
| U8C G9A U10A U11A C13A | 1.17 |
| U8C G9A U10A U11A C13G | 1.07 |
| U8C G9A U10A U11G C13U | 1.18 |
| U8C G9A U10A U11G C13G | 1.08 |
| U8C G9A U10A U11G C13A | 1.19 |

| Variant | aptazyme ON/OFF ratio |
| --- | --- |
| U8A U11A C12G | 1.2 |
| U8A U11A C12A | 1.07 |
| U8A U11A C12U | 1.19 |
| U8A U10C U11C C12A C13A | 1.18 |
| U8A U10C U11C C12A C13U | 1.07 |
| U8A U10C U11C C12A C13G | 1.14 |
| U8C G9A U10C U11G C12A | 1.25 |
| U8C G9A U10C U11G C12U | 1.29 |
| U8C G9A U10C U11G C12G | 1.27 |
| U8A U10G U11C C12G C13G | 1.25 |
| U8A U10G U11C C12G C13A | 1.41 |
| U8A U10G U11C C12G C13U | 1.38 |
| U8A U10C U11G C12G C13G | 1.26 |
| U8A U10C U11G C12G C13A | 1.29 |
| U8A U10C U11G C12G C13U | 1.14 |
| U8A U10C U11C C12G C13U | 1.11 |
| U8A U10C U11C C12G C13G | 1.1 |
| U8A U10C U11C C12G C13A | 1.21 |
| U8A U10C U11G | 1.18 |
| U8A U10C U11C | 1.01 |
| U8A U10C U11A | 1.15 |
